{"source": "patent US9889181B2", "about": "“Bacteriophage lysin and antibiotic combinations against gram positive bacteria” (priority 2012, dated 2018)", "molecules": {"B1": {"name": "PlySs2: bacteriophage lysin derived from Streptococcus suis, amino acid sequence of FIG. 29 (SEQ ID NO: 1) (protein, listed as Streptococcus suis)", "chain": "MTTVNEALNNVRAQVGSGVSVGNGECYALASWYERMISPDATVGLGAGVGWVSGAIGDTISAKNIGSSYNWQANGWTVSTSGPFKAGQIVTLGATPGNPYGHVVIVEAVDGDRLTILEQNYGGKRYPVRNYYSAASYRQQVVHYITPPGTVAQSAPNLAGSRSYRETGTMTVTVDALNVRRAPNTSGEIVAVYKRGESFDYDTVIIDVNGYVWVSYIGGSGKRNYVATGATKDGKRFGNAWGTFK"}}, "key": {"MRSA [1]": {"test_system": "MRSA", "test": "MIC, broth microdilution (CLSI M07-A9)"}, "Proteus mirabilis": {"test_system": "Proteus mirabilis", "test": "MIC, human gut bacteria", "assay_type": "cell-based", "settings": "N 2"}, "LRSA": {"test_system": "LRSA", "test": "MIC, broth microdilution (CLSI M07-A9)", "parameters": "MIC 50% / MIC 90% / MIC Range: unit not given beside the values"}, "MSSA": {"test_system": "MSSA", "test": "MIC, broth microdilution (CLSI M07-A9)"}, "Lactobacillus spp.": {"test_system": "Lactobacillus spp.", "test": "MIC, human gut bacteria", "assay_type": "cell-based", "settings": "N 6"}, "[2]": {"test_system": "S. aureus cells (strain MW2)", "test": "Electron microscopy of bacteriolysis", "assay_type": "cell-based, Staphylococcus aureus", "from_the_text": "FIG. 4A-4F provides composite time kill curves of PlySS2 and antibiotics on S. aureus cells in vitro. (A, B) Composite time-kill curves of PlySS2 compared to oxacillin (OXA), vancomycin (VAN), and daptomycin (DAP) against sets of 20 MSSA and 42 MRSA strains, respectively. In each individual analysis, drug concentrations correspond to strain-specific 1×MIC values. Mean values (±standard error of the mean) are shown for each time-point. (C, D) Titration analysis of PlySS2 against sets of 15 contemporary clinical MSSA and MRSA isolates, respectively. In each individual analysis, PlySS2 concentrations correspond to strain-specific MIC values. […] (E,F) Transmission electron micrographs (3300× magnification) of S. aureus cells (strain MW2) before and after 3 second treatment with 8 µg/mL PlySS2. Scale bars correspond to […]. Lysis results in the loss of darkly stained cytoplasmic components.\n(§1) Rapid-kill kinetics are desirable in the clinical setting to treat patients with fulminant bacterial infections."}, "MRSA S. aureus strains": {"test_system": "MRSA S. aureus strains", "test": "Dual agent MIC assay (PlySs2 and daptomycin)", "assay_type": "cell-based, Staphylococcus aureus"}, "Klebsiella spp.": {"test_system": "Klebsiella spp.", "test": "MIC, human gut bacteria", "assay_type": "cell-based", "settings": "N 8"}, "Streptococcus pneumoniae": {"test_system": "Streptococcus pneumoniae", "test": "MIC, broth microdilution (CLSI M07-A9)", "settings": "Streptococcus pneumoniae (26)"}, "MRSA [3]": {"test_system": "MRSA", "test": "Murine bacteremia, PlySs2 dose-response and blood CFUs", "assay_type": "in vivo, mice", "settings": "for decrease in CFUs in blood: 5.25 mg/kg at 2-hours post-infection"}, "Acinetobacter baumannii": {"test_system": "Acinetobacter baumannii", "test": "MIC, broth microdilution (CLSI M07-A9)", "settings": "Acinetobacter baumannii (8)"}, "Enterococcus faecium": {"test_system": "Enterococcus faecium", "test": "MIC, broth microdilution (CLSI M07-A9)", "settings": "Enterococcus faecium (5)"}, "Escherichia coli": {"test_system": "Escherichia coli", "test": "MIC, broth microdilution (CLSI M07-A9)"}, "Pseudomonas aeruginosa": {"test_system": "Pseudomonas aeruginosa", "test": "MIC, broth microdilution (CLSI M07-A9)"}, "[4]": {"test_system": "20 different MSSA and 42 MRSA strains", "test": "Time-kill assay, single agents at 1×MIC", "assay_type": "cell-based, Staphylococcus aureus", "procedure": "In order to more fully evaluate PlySs2's applicability to clinical Staphylococcal infections, time kill studies were undertaken against numerous Staphylococcus aureus strains, including methicillin resistant and methicillin sensitive strains. Time kill assays were performed according to CLSI methodology (CLSI document M07-A9 column 32 No. 2) on 42 methicillin resistant S. aureus (MRSA) strains and 20 methicillin sensitive S. aureus (MSSA) strains. Cultures of each strain (5.5×10^5-1×10^6 starting inoculum) were treated with PlySs2 lysin and with antibiotics daptomycin, oxacillin or vancomycin for comparison for 6 hours with aeration. MRSA and MSSA strains were treated with PlySs2, daptomycin and vancomycin. MSSA strains were also treated with oxacillin. 1×MIC concentrations of the different antibiotics were utilized, based on published and established antibiotic MIC values. PlySs2 lysin treatment was at approximately 1×MIC as previously determined (see TABLE 2 above). Culture aliquots were removed hourly up to 6 hours (time points taken at 15 and 30 min, 1 hr, 2 hr, 3 hr, 4 hr, 5 hr, and 6 hr) and added to a PBS/charcoal solution (to inactivate each drug), which was then serially diluted and plated for bacterial viability. The resulting log CFU/mL was plotted for each culture. Growth controls were included for each strain and represent bacterial growth in the absence of any antibacterial agent. Exemplary log kill curves for selected MRSA strains are depicted in FIG. 1. Exemplary log kill curves for selected MSSA strains are depicted in FIG. 2.\nas §1"}, "[5]": {"test_system": "Streptococcus pyogenes, Group A", "test": "MIC, broth microdilution (CLSI M07-A9)", "settings": "Group A (54)"}, "MRSA strain 269 (MW2)": {"test_system": "MRSA strain 269 (MW2)", "test": "Combination MIC in 15% surfactant (Survanta)", "assay_type": "cell-based, Staphylococcus aureus"}, "[6]": {"settings": "Staphylcoccus aureus Methicillin resistant (120)"}, "[7]": {"settings": "Linezolid-resistant (5) Staphylococcus aureus"}, "[8]": {"settings": "Staphylcoccus aureus Methicillin susceptible (103)"}}, "data": [{"molecule": "B1", "values": [{"measurement": "MIC90", "setting": "MRSA [1]; MRSA (n = 45)", "value": 0.15, "unit": "µM"}, {"measurement": "MIC 50%", "setting": "MRSA [1]; [6]", "value": 4, "unit": "µg/mL"}, {"measurement": "MIC 90%", "setting": "MRSA [1]; [6]", "value": 8, "unit": "µg/mL"}, {"measurement": "MIC Range", "setting": "MRSA [1]; [6]", "value": "1 to 16", "unit": "µg/mL"}, {"measurement": "MIC", "setting": "MRSA [1]; strain MW2, without DTT", "value": 32, "unit": "µg/mL"}, {"measurement": "CF-301 MIC", "setting": "Proteus mirabilis", "value": ">512", "unit": "µg/mL"}, {"measurement": "MIC90", "setting": "LRSA; LRSA (n = 5)", "value": 0.08, "unit": "µM"}, {"measurement": "MIC 50%", "setting": "LRSA; [7]", "value": 2}, {"measurement": "MIC 90%", "setting": "LRSA; [7]", "value": 2}, {"measurement": "MIC Range", "setting": "LRSA; [7]", "value": "2-4"}, {"measurement": "MIC90", "setting": "MSSA; MSSA (n-28)", "value": 0.15, "unit": "µM"}, {"measurement": "MIC 50%", "setting": "MSSA; [8]", "value": 4, "unit": "µg/mL"}, {"measurement": "MIC 90%", "setting": "MSSA; [8]", "value": 8, "unit": "µg/mL"}, {"measurement": "MIC Range", "setting": "MSSA; [8]", "value": "1 to 16", "unit": "µg/mL"}, {"measurement": "CF-301 MIC", "setting": "Lactobacillus spp.", "value": ">512", "unit": "µg/mL"}, {"measurement": "treatment time giving extensive bacteriolysis of S. aureus cocci", "setting": "[2]", "value": 15, "unit": "s"}, {"measurement": "Fold reduction", "setting": "MRSA S. aureus strains; MRSA strain 223", "value": 4, "unit": "fold"}, {"measurement": "Fold reduction", "setting": "MRSA S. aureus strains; MRSA strain 241", "value": 2, "unit": "fold"}, {"measurement": "Fold reduction", "setting": "MRSA S. aureus strains; MRSA strain 263", "value": 4, "unit": "fold"}, {"measurement": "Fold reduction", "setting": "MRSA S. aureus strains; MRSA strain 269 (MW2)", "value": 4, "unit": "fold"}, {"measurement": "Fold reduction", "setting": "MRSA S. aureus strains; MRSA strain 270", "value": 4, "unit": "fold"}, {"measurement": "Fold reduction", "setting": "MRSA S. aureus strains; MRSA strain 553", "value": 2, "unit": "fold"}, {"measurement": "Fold reduction", "setting": "MRSA S. aureus strains; MRSA strain 650", "value": 2, "unit": "fold"}, {"measurement": "Fold reduction", "setting": "MRSA S. aureus strains; MRSA strain 827", "value": 2, "unit": "fold"}, {"measurement": "Fold reduction", "setting": "MRSA S. aureus strains; MRSA strain 828", "value": 4, "unit": "fold"}, {"measurement": "Fold reduction", "setting": "MRSA S. aureus strains; MRSA strain 829", "value": 2, "unit": "fold"}, {"measurement": "Fold reduction", "setting": "MRSA S. aureus strains; MRSA strain 830", "value": 2, "unit": "fold"}, {"measurement": "Fold reduction", "setting": "MRSA S. aureus strains; MRSA strain 833", "value": 4, "unit": "fold"}, {"measurement": "fold reduction in the effective MIC in PlySs2/daptomycin combination", "setting": "MRSA S. aureus strains; across 12 MRSA strains", "value": "2-4 fold"}, {"measurement": "CF-301 MIC", "setting": "Klebsiella spp.", "value": ">512", "unit": "µg/mL"}, {"measurement": "MIC 50%", "setting": "Streptococcus pneumoniae", "value": 16, "unit": "µg/mL"}, {"measurement": "MIC 90%", "setting": "Streptococcus pneumoniae", "value": 64, "unit": "µg/mL"}, {"measurement": "MIC Range", "setting": "Streptococcus pneumoniae", "value": "1 to 64", "unit": "µg/mL"}, {"measurement": "protection", "setting": "MRSA [3]; 5 mg/kg dose, data not shown", "value": "significant protection"}, {"measurement": "decrease in CFUs in blood", "setting": "MRSA [3]; in 15 minutes", "value": 0.5, "unit": "log10"}, {"measurement": "decrease in CFUs in blood", "setting": "MRSA [3]; within the 60 minutes of treatment", "value": 2, "unit": "log10"}, {"measurement": "lowest dose with survival enhancement over mock-injected control", "setting": "MRSA [3]; data not shown", "value": 0.25, "unit": "mg/kg"}, {"measurement": "MIC 50%", "setting": "Acinetobacter baumannii", "value": ">512", "unit": "µg/mL"}, {"measurement": "MIC 90%", "setting": "Acinetobacter baumannii", "value": ">512", "unit": "µg/mL"}, {"measurement": "MIC Range", "setting": "Acinetobacter baumannii", "value": ">512", "unit": "µg/mL"}, {"measurement": "MIC 50%", "setting": "Enterococcus faecium", "value": ">512", "unit": "µg/mL"}, {"measurement": "MIC 90%", "setting": "Enterococcus faecium", "value": ">512", "unit": "µg/mL"}, {"measurement": "MIC 50%", "setting": "Escherichia coli; Escherichia coli (6)", "value": ">512", "unit": "µg/mL"}, {"measurement": "MIC 90%", "setting": "Escherichia coli; Escherichia coli (6)", "value": ">512", "unit": "µg/mL"}, {"measurement": "MIC Range", "setting": "Escherichia coli; Escherichia coli (6)", "value": ">512", "unit": "µg/mL"}, {"measurement": "CF-301 MIC", "setting": "Escherichia coli; Escherichia coli, N 10, human gut bacteria", "value": ">512", "unit": "µg/mL"}, {"measurement": "MIC 50%", "setting": "Pseudomonas aeruginosa; Pseudomonas aeruginosa (5)", "value": ">512", "unit": "µg/mL"}, {"measurement": "MIC 90%", "setting": "Pseudomonas aeruginosa; Pseudomonas aeruginosa (5)", "value": ">512", "unit": "µg/mL"}, {"measurement": "MIC Range", "setting": "Pseudomonas aeruginosa; Pseudomonas aeruginosa (5)", "value": ">512", "unit": "µg/mL"}, {"measurement": "CF-301 MIC", "setting": "Pseudomonas aeruginosa; Pseudomonas aeruginosa, N 11, human gut bacteria", "value": ">512", "unit": "µg/mL"}, {"measurement": "time to reach bactericidal levels (≧3-log10 reduction in CFUs)", "setting": "[4]; 1×MIC", "value": "≤ 30", "unit": "minutes"}, {"measurement": "comparative kill", "setting": "[4]; 1×MIC, up to 6 hours", "value": "greater and faster than any antibiotic"}, {"measurement": "maximal kill (log reduction)", "setting": "[4]; all MRSA and MSSA strains tested, generally within the first hour of incubation", "value": "≥ 3", "unit": "log"}, {"measurement": "MIC 50%", "setting": "[5]", "value": 2, "unit": "µg/mL"}, {"measurement": "MIC 90%", "setting": "[5]", "value": 8, "unit": "µg/mL"}, {"measurement": "MIC Range", "setting": "[5]", "value": "0.5 to 8", "unit": "µg/mL"}, {"measurement": "effective combination concentration as fraction of the MIC", "setting": "MRSA strain 269 (MW2)", "value": "⅛"}, {"measurement": "effective concentration in PlySs2 plus daptomycin combination MIC", "setting": "MRSA strain 269 (MW2); 24 hours", "value": 2, "unit": "µg/mL"}]}]}
